The record followed here is paper PMC12575849.

One series concerns CHD1 deltaNC (human). The experiment in a line: EMSA. To be noted: 5 mM Mg2+, no ATP listed; 10 mM HEPES pH 8.0, 75 mM NaCl, 5 mM MgCl2, 10% glycerol, 1 mM DTT, 0.1 mg/ml BSA; 5 nM nucleosome; 30 min at 30 C; native PAGE. In general terms: A gel shift assay detects complexes by their altered migration in electrophoresis.
For a further series, the system named is CHD1 WT (human). Description: EMSA. To be noted: 5 mM Mg2+, no ATP listed; 10 mM HEPES pH 8.0, 75 mM NaCl, 5 mM MgCl2, 10% glycerol, 1 mM DTT, 0.1 mg/ml BSA; 5 nM nucleosome; 30 min at 30 C; native PAGE.
Series [1] addresses unmodified nucleosome (recombinant human histone octamer on Widom 601 DNA) (human) (UniProt P04908). The experiment in a line: native gel or EMSA; purified CHD1 titrated against 5 nM IR dye-conjugated nucleosome in EMSA buffer (10 mM HEPES pH 8.0, 75 mM NaCl, 5 mM MgCl2, 10% glycerol, 1 mM DTT, 0.1 mg/ml BSA), 30 min at 30 °C, native PAGE; shifted fraction fitted to a dose-response curve.

Chain of recombinant CHD1^WT protein (O14646 whole entry): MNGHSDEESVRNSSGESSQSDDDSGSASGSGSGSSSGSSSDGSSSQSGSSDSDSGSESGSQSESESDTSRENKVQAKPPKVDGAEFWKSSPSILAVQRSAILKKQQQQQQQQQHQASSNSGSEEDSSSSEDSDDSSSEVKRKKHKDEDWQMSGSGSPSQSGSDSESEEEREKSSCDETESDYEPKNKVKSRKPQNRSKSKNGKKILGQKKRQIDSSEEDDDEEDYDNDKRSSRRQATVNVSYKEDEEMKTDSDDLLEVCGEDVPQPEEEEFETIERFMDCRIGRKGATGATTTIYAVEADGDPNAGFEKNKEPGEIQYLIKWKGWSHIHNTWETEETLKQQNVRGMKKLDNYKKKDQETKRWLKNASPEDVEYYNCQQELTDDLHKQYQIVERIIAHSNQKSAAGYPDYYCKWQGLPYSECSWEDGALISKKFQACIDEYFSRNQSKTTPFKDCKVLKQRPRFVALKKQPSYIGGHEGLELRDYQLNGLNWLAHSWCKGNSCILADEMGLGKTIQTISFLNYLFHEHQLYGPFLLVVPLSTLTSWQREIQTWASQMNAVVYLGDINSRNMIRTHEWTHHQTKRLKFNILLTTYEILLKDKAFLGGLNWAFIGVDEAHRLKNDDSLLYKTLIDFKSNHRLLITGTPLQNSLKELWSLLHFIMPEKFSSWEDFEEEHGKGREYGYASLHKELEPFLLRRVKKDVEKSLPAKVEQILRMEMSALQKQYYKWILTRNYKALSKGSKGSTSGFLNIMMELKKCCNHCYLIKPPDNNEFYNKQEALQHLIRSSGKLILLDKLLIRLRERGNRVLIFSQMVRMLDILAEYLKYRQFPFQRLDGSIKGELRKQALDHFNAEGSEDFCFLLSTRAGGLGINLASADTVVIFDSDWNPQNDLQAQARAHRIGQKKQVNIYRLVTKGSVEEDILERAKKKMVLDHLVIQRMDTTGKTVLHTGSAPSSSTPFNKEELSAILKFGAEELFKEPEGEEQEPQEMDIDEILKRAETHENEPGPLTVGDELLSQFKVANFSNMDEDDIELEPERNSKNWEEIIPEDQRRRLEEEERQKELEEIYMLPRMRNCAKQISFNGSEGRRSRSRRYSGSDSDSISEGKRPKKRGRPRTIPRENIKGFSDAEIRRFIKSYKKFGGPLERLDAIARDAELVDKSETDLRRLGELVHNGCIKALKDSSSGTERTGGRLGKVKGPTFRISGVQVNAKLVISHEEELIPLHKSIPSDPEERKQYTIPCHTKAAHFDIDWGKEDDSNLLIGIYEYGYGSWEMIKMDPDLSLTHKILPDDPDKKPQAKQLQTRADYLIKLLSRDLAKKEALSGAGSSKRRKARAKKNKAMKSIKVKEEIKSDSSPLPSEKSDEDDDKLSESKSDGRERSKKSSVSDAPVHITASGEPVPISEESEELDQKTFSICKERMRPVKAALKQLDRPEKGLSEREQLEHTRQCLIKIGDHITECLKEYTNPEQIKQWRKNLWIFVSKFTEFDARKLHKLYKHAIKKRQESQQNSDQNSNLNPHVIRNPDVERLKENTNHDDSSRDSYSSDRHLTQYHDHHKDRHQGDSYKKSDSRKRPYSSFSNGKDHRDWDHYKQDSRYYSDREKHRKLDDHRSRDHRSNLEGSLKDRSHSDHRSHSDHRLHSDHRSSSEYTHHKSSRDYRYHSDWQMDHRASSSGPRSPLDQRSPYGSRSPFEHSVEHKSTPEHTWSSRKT

Consider Widom 601 nucleosome (unmodified), for which the dissociation constant Kd (as a rule, a measure of binding affinity in units of concentration) in the series with CHD1 deltaNC (human) is 6.3 nM; in the series on CHD1 WT (human) it was 221 nM. Take “recombinant CHD1^WT protein (from UniProt O14646 1-1710) (natural protein)”: the dissociation constant Kd in series [1] was 221 nM.
